Data: the supplement of paper PMC11780869

Tested on: Bacillus subtilis
Experiment: cleaved RNA product abundance (RNA/gDNA barcode ratio) relative to median wild-type variant (ratio to wild type); higher = more accumulation of the downstream cleavage product
In short: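 The B. subtilis chromosome carried reporter mRNAs, truncated aprE or tetM, containing barcoded RNase Y cleavage-site windows mutagenized using oligos with a 9% error rate. After growth in LB at 37°C from OD600 0.0003 to 0.3, cleaved RNA was gel-selected, reverse transcribed and barcode-sequenced next to genomic DNA barcodes, with UMI collapsing. Each construct's RNA:gDNA barcode ratio was scaled to the median construct with the unmutated site. That scaled ratio is reported as cleaved product abundance.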

[1] = experiment (reporter, strain, medium): exp 8a: truncated aprE reporter, strain BJT201 with 2% xylose (RNase J1 expressed), cleavage site: glnRA (positions -5 to +31 mutated)
[2] = experiment (reporter, strain, medium): exp 2b: truncated aprE reporter, strain BJT200, cleavage site: cggR-gapA (positions -7 to +36 mutated)
[3] = experiment (reporter, strain, medium): exp 4a: truncated aprE reporter, strain BJT201 with 2% xylose (RNase J1 expressed), cleavage site: cggR-gapA (positions -7 to +36 mutated)
[4] = experiment (reporter, strain, medium): exp 6: tetM reporter, strain 168, cleavage site: cggR-gapA (positions -7 to +36 mutated)

| Sequence | cleaved RNA product abundance [2] | cleaved RNA product abundance [3] | further results |
| --- | --- | --- | --- |
| CGACATGTCCCGCTTCTTTCATTAATCCGTTAGCAACTATTTTGCTATATACATTTACATTTTAAGAGGAGGAAT | – | – | cleaved RNA product abundance [1]: 3.23 |
| CGACATGTCCCGCTTCTTTCATTACTCCGTTAGCAACTGTTTTGCTATATACATTTACCGTTTAAGAGGAGGAAT | – | – | cleaved RNA product abundance [1]: 1.01 |
| ACAGACGAAGGAGCCGCAAAGATGTTATTAAGCGATGAATAATCCCTCAATATAAATATCTCTCACTTATTTAAA | 0.0873 | 0.11 | – |
| ACAGACGAAGGAGCCGCAAAGTAGTTATTAAGGGATAAATAATCCCTCAATATAAATATCTCTCACTTATTTAAA | – | 0.9 | – |
| ACAGACGAAGGAGCCGCAAGGAAGTTATTAAGGGATGAATAATTCCTCAATATAAATATCTCTCACTTATTTAAA | – | 0.793 | – |
| ACAGACGAAGGAGCCGCATAGAAGTTATTAAGGGATGAATAATCCGTCAATATAAATATCTCTCACTTATTTAAA | – | 0.235 | – |
| ACAGACGAAGGAGCCGCAAAGAAGATATTAAGGGATGTATAATCCCTCAATATAAATATCTCTCACTTATTTAAA | – | 0.603 | – |
| ACAGACGAAGGAGCCGCAAAGAAGTTATTAAGGGAAGAATAATTCCTCAATATAAATATCTCTCACTTATTTAAA | 0.165 | 0.21 | – |
| CGACATGTCCCGCTTCTTTCATTAATCCTTTAGCAAGTGTTTTGCTATATACATTTACCTTTTAAGAGGAGGAAT | – | – | cleaved RNA product abundance [1]: 0.82 |
| ACAGACGAAGGAGCCGCAAAGAACTTATTAAGGGATGAACAATCCCTCAATATAAATATCTCTCACTTATTTAAA | – | 0.344 | – |
| ACAGACGAAGGAGCCGCAAAGAAGTTATTAAGCGATGTATAATCCCTCAATATAAATATCTCTCACTTATTTAAA | – | 0.08 | – |
| ACAGACGAAGGAGCCGCAAAGAAGTTATTAAGGGCTGAAAAATCCCTCAATATAAATATCTCTCACTTATTTAAA | 0.212 | – | – |
| CGACATGTCCCGCTTCTTTCATTAATCCGTTAACAACTGTATTGCTATATACATTTACCTTTTAAGAGGAGGAAT | – | – | cleaved RNA product abundance [1]: 0.316 |
| ACAGACGAAGGAGCCGCAAAGAAGTTATTAAGTGATGAATAATCCCTCAATAGAAATATCTCTCACTTATTTAAA | – | 0.0533 | – |
| ACAGACGAAGGAGCCGCAATGAAGTTATTAAGGGATAAATAATCCCTCAATATAAATATCTCTCACTTATTTAAA | – | 0.659 | – |
| ACAGACGAAGGAGCCGCAAAGAAGTTAATAAGGGATGAATAATCCCTCAATATAAATGTCTCTCACTTATTTAAA | – | 0.303 | – |
| ACAGACGAAGGAGCCGCAAAGAAGTTATTAAGGGATGCATAATCCCTCAATATAAACATCTCTCACTTATTTAAA | – | 0.545 | – |
| CGACATGTCCCGCTTCTTTCATTAATCCGTTAGGAACTGTTTTGCTATATACATTTACTTTTTAAGAGGAGGAAT | – | – | cleaved RNA product abundance [1]: 0.247 |
| ACAGACGAAGGAGCCGCAAAGAAGTTATTAAGGGATCAACAATCCCTCAATATAAATATCTCTCACTTATTTAAA | 1 | 0.962 | – |
| ACAGACGAAGGAGCCGCAAAGAAGTTATTAAGGGATGAATCATCCCTCAAGATAAATATCTCTCACTTATTTAAA | – | 0.27 | – |

| Sequence | cleaved RNA product abundance [2] | cleaved RNA product abundance [3] | further results |
| --- | --- | --- | --- |
| CGACATGTCCCGCTTCTTTCATTAATCCGTTACCAACTGTTATGCTATATACATTTACCTTTTAAGAGGAGGAAT | – | – | cleaved RNA product abundance [1]: 0.307 |
| ACAGACGAAGGAGCCGCAAACAAGTTATTAAGAGATGAATAATCCCTCAATATAAATATCTCTCACTTATTTAAA | 0.0959 | 0.118 | – |
| ACAGACGAAGGAGCCGCAAAGAAATTATTAAGGGATGAATAATCCCTCTATATAAATATCTCTCACTTATTTAAA | 0.418 | 0.319 | – |
| ACAGACGAAGGAGCCGCAAACAAGTTATTAAGGTATGAATAATCCCTCAATATAAATATCTCTCACTTATTTAAA | 0.102 | 0.0749 | – |
| ACAGACGAAGGAGCCGCAAAGAAGTTATTAAGTGATGAATAATCCCTCAATATAAAAATCTCTCACTTATTTAAA | – | 0.124 | – |
| ACAGACGAAGGAGCCGCAAAGAAGTTATTAAGGGATGAATAATTTCTCAATATAAATATCTCTCACTTATTTAAA | – | 0.16 | – |
| ACAGACGAAGGAGCCGCAAAGAAGTTATTAAGGGATGATTAATCCCGCAATATAAATATCTCTCACTTATTTAAA | – | 0.0868 | – |
| ACAGACGAAGGAGCCGCAAAGAAGTTATTAAGGGATGAATAATCCCTCAATATAAATACCTCTCACTTATTTAAA | 0.69 | 0.56 | cleaved RNA product abundance [4]: 0.593 |
| ACAGACGAAGGAGCCGCAAAGAAGTTATTAAGGGATGAATAAACCCTCAATGTAAATATCTCTCACTTATTTAAA | – | 0.19 | – |
| ACAGACGAAGGAGCCGCAAGGAAGTAATTAAGGGATGAATAATCCCTCAATATAAATATCTCTCACTTATTTAAA | – | 0.182 | – |
| ACAGACGAAGGAGCCGCTAAGAAGTTATTAAGGGTTGAATAATCCCTCAATATAAATATCTCTCACTTATTTAAA | – | 0.377 | – |
| ACAGACGAAGGAGCCGCAAAGAAGTTATTAAGGGATGAACAATCCCTCAATATTAATATCTCTCACTTATTTAAA | – | 0.189 | – |
| ACAGACGAAGGAGCCGCAAAGAAGTTATTAAGGGATGAATAATCCCACAATATGAATATCTCTCACTTATTTAAA | 0.107 | 0.0667 | – |
| CGACATGTCCCGCTTCTTTCATTAATCCTTTAGCAACTGTTTTGCTATATACATATACCTTTTAAGAGGAGGAAT | – | – | cleaved RNA product abundance [1]: 0.842 |
| ACAGACGAAGGAGCCGCAAAGAAGATATTAAGGGATGAAAAATCCCTCAATATAAATATCTCTCACTTATTTAAA | – | 0.376 | – |
| CGACATGTCCCGCTTCTTTCATTAAACCGTTATCAACTGTTTTGCTATATACATTTACCTTTTAAGAGGAGGAAT | – | – | cleaved RNA product abundance [1]: 0.218 |
| ACAGACGAAGGAGCCGCAAATAAGTTATTAAGGGATGAATAATCCCTCAATATAAATATCTCTCACTTATTTAAA | 0.972 | 0.932 | cleaved RNA product abundance [4]: 1.07 |
| ACAGACGAAGGAGCCGCAAAGAAGTTATTAACAGATGAATAATCCCTCAATATAAATATCTCTCACTTATTTAAA | 0.0822 | 0.0984 | – |
| ACAGACGAAGGAGCCGCAAAGAAGTTATTAAAGGACGAATAATCCCTCAATATAAATATCTCTCACTTATTTAAA | – | 0.103 | – |
| ACAGACGAAGGAGCCGCAAAGAAGTTATTAAGGGATGAACAATCCCTCAATATAAATATCTCTCACTTATTTAAA | 0.842 | 0.864 | cleaved RNA product abundance [4]: 0.875 |

| Sequence | cleaved RNA product abundance [2] | cleaved RNA product abundance [3] | further results |
| --- | --- | --- | --- |
| ACAGACGAAGGAGCCGCAAAGAATTTATTAAGGGATAAATAATCCCTCAATATAAATATCTCTCACTTATTTAAA | 0.767 | 0.595 | – |
| CGACATGTCCCGCTTCTTTCATTACTCCGTTAGCAACTGTTTTGCTATATACATTGACCTTTTAAGAGGAGGAAT | – | – | cleaved RNA product abundance [1]: 1.16 |
| ACAGACGAAGGAGCCGCAAAGAAGTAATTAAGGGATTAATAATCCCTCAATATAAATATCTCTCACTTATTTAAA | – | 0.379 | – |
| ACAGACGAAGGAGCCGCTAAGAAGTTATTAAGGGATGAATAAACCCTCAATATAAATATCTCTCACTTATTTAAA | 0.537 | 0.689 | – |
| ACAGACGAAGGAGCCGCAAAGAAATTATTAAGTGATGAATAATCCCTCAAAATAAATATCTCTCACTTATTTAAA | 0.117 | 0.0994 | – |
| CGACATGTCCCGCTTCTTTCATTAATCCGTTAGCAACTGTTGTGCTATATATATTTACCTTTTAAGAGGAGGAAT | – | – | cleaved RNA product abundance [1]: 0.736 |
| CGACATGTCCCGCTTCTTTCATTAATCCGTTAACAATTGTTTTGCTATATACATTTACCTTTTAAGAGGAGGAAT | – | – | cleaved RNA product abundance [1]: 0.241 |
| ACAGACGAAGGAGCCGCAAAGAAGTTATTATGGGATGAATAATTCCTCAATATAAATATCTCTCACTTATTTAAA | 0.149 | 0.246 | – |
| ACAGACGAAGGAGCCGCAACGAAGTTATTAAGGAATGAATAATCCCTCAATATAAATATCTCTCACTTATTTAAA | 0.116 | 0.126 | – |
| CGACATGTCCCGCTTCTTTCATTAATCCGTTAGCAACTGTGTTGCTATATACATTTACCTTTTAAGAGGAGGAAT | – | – | cleaved RNA product abundance [1]: 0.358 |
| ACAGACGAAGGAGCCGCAAAAAAGTTATTAAGGGATGAGTAATCCCTCAATATAAATATCTCTCACTTATTTAAA | 0.481 | 0.415 | – |
| ACAGACGAAGGAGCCGCAAAGAAGTTATGAAGGGATGAATAATCCCTCAATATAGATATCTCTCACTTATTTAAA | – | 0.446 | – |
| ACAGACGAAGGAGCCGCAAAGAAGTTATTAAGGGATGAATAATCTTTCAATATAAATATCTCTCACTTATTTAAA | – | 0.122 | – |
| ACAGACGAAGGAGCCGCAAAGAAGTTATTAAGGCATGAATAATCCCTCAATAAAAATATCTCTCACTTATTTAAA | – | 0.0606 | – |
| CGACATGTCCCGCTTCTTTCATTATTCCGTTAGCAACTGTTATGCTATATACATTTACCTTTTAAGAGGAGGAAT | – | – | cleaved RNA product abundance [1]: 0.76 |
| CGACATGTCCCGCTTCTTTCATTAATCCGTTAGCAACTGTTTTGCTATATTTATTTACCTTTTAAGAGGAGGAAT | – | – | cleaved RNA product abundance [1]: 0.495 |
| CGACATGTCCCGCTTCTTTCATTAATCCGTTAACAACTGTGTTGCTATATACATTTACCTTTTAAGAGGAGGAAT | – | – | cleaved RNA product abundance [1]: 0.24 |
| ACAGACGAAGGAGCCGCAAAGAACTTATTAAGGTATGAATAATCCCTCAATATAAATATCTCTCACTTATTTAAA | 0.0959 | 0.108 | – |
| ACAGACGAAGGAGCCGCATAGAAGTTATTAAGGGATGACTAATCCCTCAATATAAATATCTCTCACTTATTTAAA | – | 0.679 | – |
